Patent US20240002501A1
Read-outs that look alike come from different tables or passages of the source.

Assays:
[1] = biological target: L1-CAM-Fc (UniProt P32004); assay: SPR (Biacore T100), L1-CAM-Fc immobilised on CM5 chip
[2] = biological target: L1-CAM-Fc (UniProt P32004); assay: as above; remark: listed apart in the source
[3] = biological target: L1-CAM-His; assay: SPR (Biacore T100), L1-CAM-His immobilised on CM5 chip
L1-CAM-His, sequence (P32004 20-1120): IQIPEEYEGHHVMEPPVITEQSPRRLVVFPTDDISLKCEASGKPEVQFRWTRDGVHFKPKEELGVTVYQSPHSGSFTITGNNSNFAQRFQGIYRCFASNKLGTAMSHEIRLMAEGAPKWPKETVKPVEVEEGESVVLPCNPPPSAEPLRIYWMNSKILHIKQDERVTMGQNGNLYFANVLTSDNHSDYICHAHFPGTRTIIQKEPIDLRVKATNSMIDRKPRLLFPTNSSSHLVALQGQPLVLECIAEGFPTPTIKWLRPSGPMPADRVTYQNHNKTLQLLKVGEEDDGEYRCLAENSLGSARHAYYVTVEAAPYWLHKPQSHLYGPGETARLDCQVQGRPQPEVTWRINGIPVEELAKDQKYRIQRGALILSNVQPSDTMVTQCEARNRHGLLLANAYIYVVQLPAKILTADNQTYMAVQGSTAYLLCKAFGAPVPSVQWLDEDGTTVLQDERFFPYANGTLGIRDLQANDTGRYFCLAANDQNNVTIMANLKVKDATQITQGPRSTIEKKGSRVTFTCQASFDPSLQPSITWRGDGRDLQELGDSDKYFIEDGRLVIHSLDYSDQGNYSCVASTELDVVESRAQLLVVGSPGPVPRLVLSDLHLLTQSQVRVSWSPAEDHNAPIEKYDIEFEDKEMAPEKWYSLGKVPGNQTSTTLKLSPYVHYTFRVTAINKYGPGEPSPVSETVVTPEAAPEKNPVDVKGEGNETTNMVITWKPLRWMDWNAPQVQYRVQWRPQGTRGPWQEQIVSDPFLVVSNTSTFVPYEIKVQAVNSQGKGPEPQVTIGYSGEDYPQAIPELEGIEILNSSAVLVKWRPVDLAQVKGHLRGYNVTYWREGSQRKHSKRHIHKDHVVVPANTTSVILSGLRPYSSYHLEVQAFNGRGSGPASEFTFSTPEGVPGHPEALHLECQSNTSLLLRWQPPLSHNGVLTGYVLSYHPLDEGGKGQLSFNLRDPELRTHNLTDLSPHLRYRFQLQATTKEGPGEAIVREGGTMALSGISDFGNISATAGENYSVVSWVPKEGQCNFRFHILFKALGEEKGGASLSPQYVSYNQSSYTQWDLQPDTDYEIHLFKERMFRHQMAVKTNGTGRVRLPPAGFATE

L1-CAM-Fc, sequence (P32004 20-1120 limits assumed): as the sequence (P32004 20-1120) above

Kd [1]: 1.42 nM
Kd [2]: 0.618 nM
Kd [3]: 1.3 nM
B1: chCE7 (antibody, from another filing, V domains shown)
VH: QVQLQQPGAELVKPGASVKLSCKASGYTFTGYWMHWVKQRPGHGLEWIGEINPSNGRTNYNERFKSKATLTVDKSSTTAFMQLSGLTSEDSAVYFCARDYYGTSYNFDYWGQGTTLTVSS
VL: DIQMTQSSSSFSVSLGDRVTITCKANEDINNRLAWYQQTPGNSPRLLISGATNLVTGVPSRFSGSGSGKDYTLTITSLQAEDFATYYCQQYWSTPFTFGSGTELEIK
